Ends that are not written are not given here.
Assays:
[1] = target: T1, FX activation peptide 12-mer SVAQATSSSGEA (human); assay: peptide ELISA
T1 peptide: SVAQATSSSGEA-biotin
Procedure: (§1) The peptides were C-terminally conjugated to biotin and 50 μL of 1 μg/mL peptide solution was used for immobilization in discrete wells of the microtiter plate which was pre-coated with 1 μg/mL streptavidin. Each well was washed with washing buffer (10 mM Tris, 150 mM NaCl, 2.5 mM CaCl₂, 0.05% Tween 20, pH 8.60) followed by addition of 50 μL of 2 μg/mL FLAG-tagged anti-FX Nanobody® or IgG antibody to be tested. After 1 hour non-bound Nanobody®/antibody was washed off using washing buffer.
(§2) Bound anti-FX activation peptide ligand was detected by first binding a HRP-labelled secondary antibody (for FLAG-tagged Nanobodies: Anti-FLAG mAb M2-Peroxidase (HRP) (Sigma Aldrich, US), for antibody: Fcγ Fragment Specific Peroxidase AffiniPure F(ab′)₂ Fragment Goat Anti-Human IgG (Jackson ImmunoResearch Laboratories, Inc., US), or Peroxidase AffiniPure Goat Anti-Mouse IgG (Jackson ImmunoResearch Laboratories, Inc., US)) for 1 hour, and then adding 100 μL TMB-1 ELISA substrate (Kem-En-Tec Diagnostics, Denmark).

[2] = target: T2, FX activation peptide 12-mer VAQATSSSGEAP (human); assay: peptide ELISA
T2 peptide: VAQATSSSGEAP-biotin
Procedure: as §1, §2

[3] = target: T3, FX activation peptide 12-mer AQATSSSGEAPD (human); assay: peptide ELISA
T3 peptide: AQATSSSGEAPD-biotin
Procedure: as §1, §2

[4] = target: T4, FX activation peptide 12-mer ATSSSGEAPDSI (human); assay: peptide ELISA
T4 peptide: ATSSSGEAPDSI-biotin
Procedure: as §1, §2

[5] = target: T5, FX activation peptide 12-mer TSSSGEAPDSIT (human); assay: peptide ELISA
T5 peptide: TSSSGEAPDSIT-biotin
Procedure: as §1, §2

[6] = target: T6, FX activation peptide 12-mer SSSGEAPDSITW (human); assay: peptide ELISA
T6 peptide: SSSGEAPDSITW-biotin
Procedure: as §1, §2

[7] = target: T7, FX activation peptide 12-mer SSGEAPDSITWK (human); assay: peptide ELISA
T7 peptide: SSGEAPDSITWK-biotin
Procedure: as §1, §2

[8] = target: T8, FX activation peptide 12-mer SGEAPDSITWKP (human); assay: peptide ELISA
T8 peptide: SGEAPDSITWKP-biotin
Procedure: as §1, §2

[9] = target: T9, FX activation peptide 12-mer EAPDSITWKPYD (human); assay: peptide ELISA
T9 peptide: EAPDSITWKPYD-biotin
Procedure: as §1, §2

[10] = target: T10, FX activation peptide 12-mer APDSITWKPYDA (human); assay: peptide ELISA
T10 peptide: APDSITWKPYDA-biotin
Procedure: as §1, §2

[11] = target: T11, FX activation peptide 12-mer PDSITWKPYDAA (human); assay: peptide ELISA
T11 peptide: PDSITWKPYDAA-biotin
Procedure: as §1, §2

[12] = target: T12, FX activation peptide 12-mer DSITWKPYDAAD (human); assay: peptide ELISA
T12 peptide: DSITWKPYDAAD-biotin
Procedure: as §1, §2

[13] = target: T13, FX activation peptide 12-mer SITWKPYDAADL (human); assay: peptide ELISA
T13 peptide: SITWKPYDAADL-biotin
Procedure: as §1, §2

[14] = target: T14, FX activation peptide 12-mer ITWKPYDAADLD (human); assay: peptide ELISA
T14 peptide: ITWKPYDAADLD-biotin
Procedure: as §1, §2

[15] = target: T15, FX activation peptide 12-mer TWKPYDAADLDP (human); assay: peptide ELISA
T15 peptide: TWKPYDAADLDP-biotin
Procedure: as §1, §2

[16] = target: T16, FX activation peptide 12-mer WKPYDAADLDPT (human); assay: peptide ELISA
T16 peptide: WKPYDAADLDPT-biotin
Procedure: as §1, §2

[17] = target: T17, FX activation peptide 12-mer KPYDAADLDPTE (human); assay: peptide ELISA
T17 peptide: KPYDAADLDPTE-biotin
Procedure: as §1, §2

[18] = target: T18, FX activation peptide 12-mer PYDAADLDPTEN (human); assay: peptide ELISA
T18 peptide: PYDAADLDPTEN-biotin
Procedure: as §1, §2

[19] = target: T19, FX activation peptide 12-mer YDAADLDPTENP (human); assay: peptide ELISA
T19 peptide: YDAADLDPTENP-biotin
Procedure: as §1, §2

[20] = target: T20, FX activation peptide 12-mer AADLDPTENPFD (human); assay: peptide ELISA
T20 peptide: AADLDPTENPFD-biotin
Procedure: as §1, §2

[21] = target: T21, FX activation peptide 12-mer ADLDPTENPFDL (human); assay: peptide ELISA
T21 peptide: ADLDPTENPFDL-biotin
Procedure: as §1, §2

[22] = target: T22, FX activation peptide 12-mer DLDPTENPFDLL (human); assay: peptide ELISA
T22 peptide: DLDPTENPFDLL-biotin
Procedure: as §1, §2

[23] = target: T23, FX activation peptide 12-mer TENPFDLLDFNQ (human); assay: peptide ELISA
T23 peptide: TENPFDLLDFNQ-biotin
Procedure: as §1, §2

[24] = target: T24, FX activation peptide 12-mer ENPFDLLDFNQT (human); assay: peptide ELISA
T24 peptide: ENPFDLLDFNQT-biotin
Procedure: as §1, §2

[25] = target: T25, FX activation peptide 12-mer NPFDLLDFNQTQ (human); assay: peptide ELISA
T25 peptide: NPFDLLDFNQTQ-biotin
Procedure: as §1, §2

[26] = target: T26, FX activation peptide 12-mer FDLLDFNQTQPE (human); assay: peptide ELISA
T26 peptide: FDLLDFNQTQPE-biotin
Procedure: as §1, §2

[27] = target: T27, FX activation peptide 12-mer DLLDFNQTQPER (human); assay: peptide ELISA
T27 peptide: DLLDFNQTQPER-biotin
Procedure: as §1, §2

[28] = target: T28, FX activation peptide 12-mer LLDFNQTQPERG (human); assay: peptide ELISA
T28 peptide: LLDFNQTQPERG-biotin
Procedure: as §1, §2

[29] = target: T29, FX activation peptide 12-mer LDFNQTQPERGD (human); assay: peptide ELISA
T29 peptide: LDFNQTQPERGD-biotin
Procedure: as §1, §2

[30] = target: T30, FX activation peptide 12-mer DFNQTQPERGDN (human); assay: peptide ELISA
T30 peptide: DFNQTQPERGDN-biotin
Procedure: as §1, §2

[31] = target: T31, FX activation peptide 12-mer NQTQPERGDNNL (human); assay: peptide ELISA
T31 peptide: NQTQPERGDNNL-biotin
Procedure: as §1, §2

[32] = target: T32, FX activation peptide 12-mer QTQPERGDNNLT (human); assay: peptide ELISA
T32 peptide: QTQPERGDNNLT-biotin
Procedure: as §1, §2

[33] = target: human activated Factor X (human, UniProt P00742 41-179; P00742 235-488); assay: cell-based or functional assay
Chain of human activated Factor X (P00742 41-179, chain 1 of 2): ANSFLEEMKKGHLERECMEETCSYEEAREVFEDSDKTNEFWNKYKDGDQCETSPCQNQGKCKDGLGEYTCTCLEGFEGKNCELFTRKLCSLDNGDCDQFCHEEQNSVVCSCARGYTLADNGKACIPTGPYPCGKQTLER
Chain of human activated Factor X (P00742 235-488, chain 2 of 2): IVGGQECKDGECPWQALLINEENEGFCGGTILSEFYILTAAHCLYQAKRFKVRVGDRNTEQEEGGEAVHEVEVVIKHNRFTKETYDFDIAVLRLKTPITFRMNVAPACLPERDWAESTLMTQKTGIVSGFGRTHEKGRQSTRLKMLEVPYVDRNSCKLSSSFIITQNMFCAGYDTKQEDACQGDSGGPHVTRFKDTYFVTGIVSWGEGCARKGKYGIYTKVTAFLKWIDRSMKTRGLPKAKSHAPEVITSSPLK

ELISA signal relative to background [1]: 0.76 | ELISA signal relative to background [2]: 0.73 | ELISA signal relative to background [3]: 0.75 | ELISA signal relative to background [4]: 0.82 | ELISA signal relative to background [5]: 0.97 | ELISA signal relative to background [6]: 0.84 | ELISA signal relative to background [7]: 0.89 | ELISA signal relative to background [8]: 0.84 | ELISA signal relative to background [9]: 0.79 | ELISA signal relative to background [10]: 0.82 | ELISA signal relative to background [11]: 0.83 | ELISA signal relative to background [12]: 0.76 | ELISA signal relative to background [13]: 0.84 | ELISA signal relative to background [14]: 0.83 | ELISA signal relative to background [15]: 0.92 | ELISA signal relative to background [16]: 1.14 | ELISA signal relative to background [17]: 0.88 | ELISA signal relative to background [18]: 0.88 | ELISA signal relative to background [19]: 0.81 | ELISA signal relative to background [20]: 0.79 | ELISA signal relative to background [21]: 0.73 | ELISA signal relative to background [22]: 0.82 | ELISA signal relative to background [23]: 4.38 | ELISA signal relative to background [24]: 3.43 | ELISA signal relative to background [25]: 2.16 | ELISA signal relative to background [26]: 3.27 | ELISA signal relative to background [27]: 1.17 | ELISA signal relative to background [28]: 1.09 | ELISA signal relative to background [29]: 0.82 | ELISA signal relative to background [30]: 0.87 | ELISA signal relative to background [31]: 0.79 | FXa amidolytic activity (relative to free FXa, fold) [33]: 1.06 fold
B1: Nb 701B09 (VHH)
VHH: EVQLVESGGGVVQPGGSLRLSCAASGRTFSTYAMGWFRQAPGKEREFVAAISWSGSRTYYADSVKGRFTISRDNSKNTVYLQMNSLRPEDTALYYCAADATPANGELDYWGQGTLVTVSS
notes: monovalent Nanobody; also called Nb 701609; not shown: C-terminal FLAG3 and HIS6 tag
ELISA signal relative to background [32]: 0.72
